This note sets out measurements from patent US20240075142A1 (LENTIGEN TECHNOLOGY, published 2024).

This assay has as its target T1, CD19 Fc recombinant protein (UniProt P15391 20-291).
T1 construct: Bought staining reagent (R&D System), detected with anti-Fc-AF647; also called CD19-Fc peptide; not shown: Fc part of the bought reagent
T1 sequence (looked up): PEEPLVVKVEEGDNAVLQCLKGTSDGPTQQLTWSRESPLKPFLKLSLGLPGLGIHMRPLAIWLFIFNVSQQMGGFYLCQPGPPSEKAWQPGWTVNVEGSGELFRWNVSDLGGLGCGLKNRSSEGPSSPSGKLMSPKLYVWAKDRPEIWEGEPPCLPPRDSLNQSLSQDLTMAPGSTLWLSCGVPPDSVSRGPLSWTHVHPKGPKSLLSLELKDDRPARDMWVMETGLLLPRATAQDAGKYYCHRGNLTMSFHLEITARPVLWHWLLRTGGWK
Nature of the assay: flow cytometry of CAR-transduced primary T cells stained with CD19 Fc, then anti-Fc AF647. The method, then:
The surface expression of anti-CD20/CD19 CARs incorporating single chain fragment variable (ScFv) sequences reactive with fully human CD20 and CD19 antigens, is shown in Example 1 infra, FIG. 1B. The expression level for each ScFv-containing CAR was determined by flow cytometric analysis of LV-transduced T cells from healthy donors using CD19 Fc recombinant protein, followed by anti Fc AF647 (APC).
Half million CAR T cells were washed in cold AutoMACS buffer supplemented with 0.5% bovine serum albumin (Miltenyi Biotec, Bergisch Gladbach, Germany) and stained with CD19-Fc peptide (R&D System, Minneapolis, MN), followed by anti Fc-AF647 conjugate (Jackson ImmunoResearch, West Grove, PA). The 7-Aminoactinomycin D staining (7-AAD, BD Biosciences, San Jose, CA) was added to exclude dead cells. CD4 antibody labeled with Vioblue fluorochrome was used to separate CD4 and CD8 population. Non-transduced cells (UTD) were used as a negative control. Cells were washed twice, resuspended in 200 μl running buffer, and acquired by flow cytometry. Flow cytometric analysis was performed on a MACSQuant® 10 Analyzer (Miltenyi Biotec), and data plots were generated using FlowJo software (Ashland, OR).
Background: Flow cytometry measures light scatter and fluorescence of single cells or particles in a stream.

B1: CAR D0255 (CD20_CD19 CD28 CD28 BBz) (other)
chain: EIVLTQSPATLSLSPGERATLSCRASQSVSSYLAWYQQKPGQAPRLLIYDASNRATGIPARFSGSGSGTDFTLTISSLEPEDFAVYYCQQRSNWPITFGQGTRLEIKGGGGSGGGGSGGGGSEVQLVESGGGLVQPGRSLRLSCAASGFTFNDYAMHWVRQAPGKGLEWVSTISWNSGSIGYADSVKGRFTISRDNAKKSLYLQMNSLRAEDTALYYCAKDIQYGNYYYGMDVWGQGTTVTVSSGGGGSGGGGSGGGGSGGGGSGGGGSEVQLVQSGAEVKKPGASVKVSCKASGYTFTSYYMHWVRQAPGQGLEWMGLINPSGGSTSYAQKFQGRVTMTRDTSTSTVYMELSSLRSEDTAVYYCARSDRGITATDAFDIWGQGTMVTVSSGGGGSGGGGSGGGGSQSVLTQPPSVSVAPGRMAKITCGGSDIGNKNVHWYQQKPGQAPVLVVYDDYDRPSGIPERFSGSNSGDAATLTISTVEVGDEADYFCQVWDGSGDPYWMFGGGTQLTVLGAAAIEVMYPPPYLDNEKSNGTIIHVKGKHLCPSPLFPGPSKPFWVLVVVGGVLACYSLLVTVAFIIFWVRSKRSRLLHSDYMNMTPRRPGPTRKHYQPYAPPRDFAAYRSKRGRKKLLYIFKQPFMRPVQTTQEEDGCSCRFPEEEEGGCELRVKFSRSADAPAYQQGQNQLYNELNLGRREEYDVLDKRRGRDPEMGGKPRRKNPQEGLYNELQKDKMAEAYSEIGMKGERRRGKGHDGLYQGLSTATKDTYDALHMQALPPR
notes: Tandem CAR on transduced human primary T cells: CD20 scFv, G4S linker, CD19 scFv, CD28 hinge/TM, CD28_4-1BB, CD3zeta; no residue limits are stated; also called CAR DO255
Consider B1, for which the binding result is on record as “binds”.

B2: CAR D0256 (CD20_CD19 CD8 CD28 BBz) (other)
chain: EIVLTQSPATLSLSPGERATLSCRASQSVSSYLAWYQQKPGQAPRLLIYDASNRATGIPARFSGSGSGTDFTLTISSLEPEDFAVYYCQQRSNWPITFGQGTRLEIKGGGGSGGGGSGGGGSEVQLVESGGGLVQPGRSLRLSCAASGFTFNDYAMHWVRQAPGKGLEWVSTISWNSGSIGYADSVKGRFTISRDNAKKSLYLQMNSLRAEDTALYYCAKDIQYGNYYYGMDVWGQGTTVTVSSGGGGSGGGGSGGGGSGGGGSGGGGSEVQLVQSGAEVKKPGASVKVSCKASGYTFTSYYMHWVRQAPGQGLEWMGLINPSGGSTSYAQKFQGRVTMTRDTSTSTVYMELSSLRSEDTAVYYCARSDRGITATDAFDIWGQGTMVTVSSGGGGSGGGGSGGGGSQSVLTQPPSVSVAPGRMAKITCGGSDIGNKNVHWYQQKPGQAPVLVVYDDYDRPSGIPERFSGSNSGDAATLTISTVEVGDEADYFCQVWDGSGDPYWMFGGGTQLTVLGAAATTTPAPRPPTPAPTIASQPLSLRPEACRPAAGGAVHTRGLDFACDIYIWAPLAGTCGVLLLSLVITLYCRSKRSRLLHSDYMNMTPRRPGPTRKHYQPYAPPRDFAAYRSKRGRKKLLYIFKQPFMRPVQTTQEEDGCSCRFPEEEEGGCELRVKFSRSADAPAYQQGQNQLYNELNLGRREEYDVLDKRRGRDPEMGGKPRRKNPQEGLYNELQKDKMAEAYSEIGMKGERRRGKGHDGLYQGLSTATKDTYDALHMQALPPR
notes: Tandem CAR on transduced human primary T cells: CD20 scFv, G4S linker, CD19 scFv, CD8 hinge/TM, CD28_4-1BB, CD3zeta; no residue limits are stated
Take B2: the binding result was “binds”.
